Measured values reported in the RNAGym collection of RNA variant scans (doi:10.7554/elife.80360).

B1: Hairpin Ribozyme (parent)
chain: GUCCUCUUUCACGUGCGCGUGAAAGAGAGAAGUGAACCAGAGAAACACACGUUGUGGUAUAUUACCUGGUA

Variants of: B1
Assay: self-cleavage, relative activity (ratio to wild type); higher = more cleavage; co-transcriptional

Variant	self-cleavage
A49C G69C	0.241
A49U G56A	0.136
C50A U53G	0.395
C50U G57A	0.112
C50A C66A	0.145
C50A G69A	0.152
U52A G68C	0.231
C50A U63G	0.2
C50A U63A	0.0698
G51A C65U	0.151
U53A G57C	0.145
U52C G54A	0.568
C48U U60A	0.107
U52C G68C	0.219
U52C G68U	0.311
U52C G68A	0.258
C48U U62C	0.118
C48U U62A	0.201
C50G U60C	0.353
G51U C65A	1.21
G51U C65U	0.284
A49C G56U	0.23
C50A G57U	0.128
C50G U53G	0.0749

Variant	self-cleavage
C50G U53A	0.251
A49C A61G	0.172
C50G A71G	0.202
C50G A71U	0.148
C48U U70G	0.211
C48U U70A	0.152
C50G U67G	0.101
C50G U67A	0.274
C50A A61G	0.12
G51U U53G	0.707
C48U G56U	0.231
A49C U55A	0.164
U52A U60C	1.42
U52A U60A	0.988
U53A U63A	0.153
U53A U63G	0.249
C50U A59U	0.272
A49U A71C	0.607
C48A U70G	0.144
C48A U70A	0.209
U52C U67G	0.276
C48U U67A	0.119
C48U U67C	0.11
A49U A59G	0.091

Variant	self-cleavage
G51U G54A	0.72
G51U G54U	0.508
G51U U63G	0.16
G51U U63A	0.215
C48G U70A	0.144
C48G U70G	0.0256
U53A U60C	1.31
U52C G57U	0.207
C48G U62A	0.0564
C48U A59G	0.121
C48U A59C	0.222
A49C A59C	0.168
A49C A59G	0.167
U53A G68A	0.279
U53A G68C	0.249
U53A G68U	0.2
U52G G68A	0.407
U53A A59U	0.129
U53A A59G	0.177
G51U U58A	0.439
G51A U62G	0.262
C48A U60C	0.208
C50U U60A	0.251
G51A U53G	0.765

Variant	self-cleavage
G51A U53A	0.869
G51U U55C	0.245
G51U U55A	0.302
G51C A64C	0.156
G51C A64G	0.521
U53A	1.01
U53C	0.97
U52G G54U	0.417
U52G G54A	0.375
U52G G54C	0.42
C48G A61C	0.0868
C48G A61G	0.131
U52A G54A	0.621
C50U C65A	0.359
A47U U63A	0.114
A47U U63G	0.0673
U53A U55A	0.0855
G51A G54C	0.36
U53A G69A	0.484
A49C G54A	0.235
C50A C65U	0.179
C48G C66U	0.156
U52C G56A	0.211
G51C U53G	0.675

Variant	self-cleavage
G51C U53C	0.828
C50A U60G	0.248
C50A A71U	0.227
C50A A71C	0.816
U52A C65U	0.328
A49U G51C	0.166
A49U G51A	0.209
G51C C65G	0.205
U53A G56U	0.105
C50U U70A	0.266
C50G U70A	0.178
A49G G56U	0.261
A49G G68A	0.147
A49C U63C	0
C48U C65U	0.154
A49G C66A	0.302
A49G C66G	0.192
G51A U52A	1.15
U52A U55G	0.372
C50G U58C	0.297
C50G U58A	0.0745
C50A U58G	0.242
G51C U62G	0.184
G51C U62A	0.141

Variant	self-cleavage
C48G A71C	0.231
C48G A71U	0.14
U52A A64U	0.177
C48U G68C	0.247
C48U G68A	0.244
C48G C50G	0.137
C48G C50A	0.0785
C48G C50U	0.177
C50G C65A	0.463
C48A C50U	0.131
C48A C50A	0.188
C48U G69A	0.178
A49G C50G	0.166
C48A U55A	0.228
C48A U55G	0.251
A49U G54U	0.36
C48A G57U	0.115
U52A C66U	0.604
U52A C66G	0.149
C48A U53C	0.18
C48G U52C	0.218
C48G U52A	0.135
C48G G51A	0.172
A49U U70A	0.237

Variant	self-cleavage
U53A A71G	1.07
C48G G68C	0.189
G51C U58A	0.653
U52C C65G	0.426
A49G U67C	0.125
A49G U67G	0.195
C48A A59G	0.219
C48A A59C	0.139
C48A A59U	0.121
C48A C66G	0.245
C48A C66U	0.202
C48U U55G	0.223
C48U U55A	0.196
C48U A71U	0.146
C48U A71C	0.387
U53A G54U	0.609
U53A G54C	0.472
C50A U67A	0.153
C50G U52C	0.155
U52G C66G	0.215
A49G U52C	0.502
A49G U52G	0.371
A49G U52A	0.614
U52A G56C	0.124

Variant	self-cleavage
U52A G56U	0.196
U53A U58C	0.574
A49U A64G	0.145
A49U A64C	0.163
A49G U55A	0.431
U52G G56A	0.19
U52G U53C	1
G51U U62C	0.324
A49G U62A	0.0894
A49G U62G	0.0712
G51C U70C	1.01
G51C U70A	0.898
C48G A49C	0.223
C48U U63G	0.163
C48U U63C	0.19
U52C A64U	0.331
G51A G57U	0.299
A49C U62C	0.22
U53A A61U	0.248
G51U A64U	0.167
U52G U60A	0.4
U52G U60G	0.298
G51C U63A	0.199
G51C U63G	0.0973

Variant	self-cleavage
G51U U52C	1
G51C C66G	0.206
G51C G54A	0.136
C48A A61C	0.201
U53A U67G	0.385
U53A U67A	0.109
A49C G68U	0.118
A49C G68C	0.15
A49C G68A	0.164
A49G G69A	0.172
A49G G69C	0.186
A49C C65U	0.08
C50A G56A	0.21
A49U U55A	1.03
U52C U62G	0.0331
U52C U60G	0.55
U52C U60C	1.16
C50U G56A	0.203
A49C C50U	0.122
C48A G69A	0.173
C48A G69U	0.121
A49C A71G	0.177
U53A U62C	0.231
C50G G69U	0.156

Variant	self-cleavage
G51U U60C	1.49
G51U U60G	0.659
C48G U63G	0.0813
G51U A71U	0.793
A49G U53A	0.4
C48U A61C	0.128
G51A U58G	1.12
G51C U60A	0.589
G51C U60C	1.23
U52A U62G	0.0279
U52A U62C	0.187
C50G G68A	0.132
A49G A61G	0.211
A49G A61U	0.217
U52C U58A	0.67
U52A A71C	1.46
A49U C65A	0.188
G51A C66U	0.574
C48G A59G	0.129
A49G A59U	0.131
G51A G56U	0.166
G51A A61C	0.0891
G51U U67G	0.384
C50U G54A	0.864

Variant	self-cleavage
U52G C65A	0.782
G51A U70G	0.792
C48G G56C	0.922
C48G G56A	0.124
G51C U55C	0.306
G51C U55G	0.268
C50U G69U	0.128
A47U U67G	0.185
A47U U67C	0.0849
C50U A64G	0.216
C48U A64G	0.0861
C48U A64C	0.255
C48U A64U	0.11
U52G G69A	0.263
C48A A64U	0.0412
C50A G51C	0.36
C50A G51A	0.288
U52C A71C	1.51
U52C A71G	1.08
A49U G69A	0.136
A49U U67G	0.109
C48U G57A	0.147
U52C A61C	0.263
U52C A61G	0.253

Variant	self-cleavage
U52C A61U	0.226
G51C G57C	0.152
C50U A71C	0.925
C50U A71U	0.211
A49U U62A	0.186
A49U U60G	0.0756
C50U U53C	0.261
C50U U53G	0.242
U53A C66G	0.247
U52C U53A	1.07
C50U G51C	0.256
C48G U55A	0.148
C50U U52G	0.318
U52A	1.03
U52G	0.862
U52C	0.97
U52A U53G	1.01
U52A U53A	0.817
A49U A61G	0.13
A49U A61U	0.108
A49U C66A	0.181
A49U C66G	0.136
A49U C66U	0.102
U52G U70A	0.638

Variant	self-cleavage
U52A G57U	0.267
U52A G57A	0.182
C50A U70C	0.244
C50U G68C	0.246
C50G G54C	0.634
C50A U55A	0.6
C50A U55G	0.419
A47U U70C	0.0521
G51C G56U	0.147
U52C G69C	0.313
U52C A59G	0.0564
U52C A59C	0.254
C48A U62C	0.207
C50A U52C	0.31
C50A U52G	0.361
C50A U52A	0.293
A49C U58A	0.082
U52G A61C	0.147
G51C G69C	0.28
C50G C66G	0.0636
U52C C66U	0.626
A49C G57U	0.0763
A49C U52G	0.14
A49C U52A	0.0356

Variant	self-cleavage
G51U C66U	0.599
G51U G57U	0.271
G51U G57C	0.137
G51A A64G	0.666
C48G U58G	0.0532
C50G A64U	0.19
U53A C65G	0.28
U53A C65A	0.901
U53A C65U	0.241
A49C G51U	0.0813
A49C G51C	0.1
A49U C50G	0.193
A49U C50A	0.293
C48A U52A	0.233
U52A A59U	0.243
A49G U60A	0.475
A49G U60C	0.722
A49G A71G	0.526
A49G A71C	1.18
A49G A71U	0.397
U52G U67A	0.212
U52G A64U	0.183
